From US20120058906A1 (published 2012)
Blank lines part the entries; values can stand above or below the binder they belong to.

Columns and labels:
[1] = molecular target: T1, rHuman P-Cadherin/Fc Chimera, CF (R&D Systems Cat#861-PC) (human, UniProt P22223 108-654); experiment: MSD ECL titration, Fab 0.6 nM, blank 226
T1 construct: Bought Fc chimera; Fc part of the bought chimera not given

[2] = molecular target: T2, rHuman IGF-1 sR (insulin-like growth factor-1 soluble receptor), CF (R&D Systems Cat#391-GR) (human, UniProt P08069 31-932); experiment: MSD ECL titration, Fab 0.6 nM, blank 226
T2 construct: Bought soluble receptor; also called IGF-R1

[3] = molecular target: T3, rHuman EGF R/Fc Chimera, CF (R&D Systems Cat#344-ER) (human, UniProt P00533 25-645); experiment: MSD ECL titration, Fab 0.6 nM, blank 226
T3 construct: Bought Fc chimera; Fc part of the bought chimera not given

[4] = molecular target: T4, Recombinant Human DLL4 (R&D Systems Cat#1506-D4/CF) (human, UniProt Q9NR61 27-524); experiment: MSD ECL titration, Fab 0.6 nM, blank 226
T4 construct: Bought recombinant protein; also called rHuman DLL4; delta-like protein 4

[5] = molecular target: T5, rHuman Notch-1/Fc Chimera, CF (R&D Systems Cat#3647-TK) (human, UniProt P46531 19-526); experiment: MSD ECL titration, Fab 0.6 nM, blank 226
T5 construct: Bought Fc chimera; Fc part of the bought chimera not given

[6] = molecular target: T6, rHuman CD44/Fc Chimera, CF (R&D Systems Cat#3660-CD) (human, UniProt P16070 21-220); experiment: MSD ECL titration, Fab 0.6 nM, blank 226
T6 construct: Bought Fc chimera; Fc part of the bought chimera not given

[7] = molecular target: T7, rHuman Erythropoietin R/Fc Chimera, CF (R&D Systems Cat#963-ER) (human, UniProt P19235 25-250); experiment: MSD ECL titration, Fab 0.6 nM, blank 226
T7 construct: Bought Fc chimera; also called EPO R/Fc; EPOR; Fc part of the bought chimera not given
T7 sequence: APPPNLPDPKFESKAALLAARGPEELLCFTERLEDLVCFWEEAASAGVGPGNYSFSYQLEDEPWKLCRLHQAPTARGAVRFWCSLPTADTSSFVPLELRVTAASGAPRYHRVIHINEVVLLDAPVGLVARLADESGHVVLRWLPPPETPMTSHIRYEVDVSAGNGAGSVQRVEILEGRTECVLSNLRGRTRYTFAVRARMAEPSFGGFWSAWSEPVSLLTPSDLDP

[8] = molecular target: T8, rHuman ErbB2/Fc Chimera, CF (R&D Systems Cat#1129-ER) (human, UniProt P04626 23-652); experiment: MSD ECL titration, Fab 0.6 nM, blank 226
T8 construct: Bought Fc chimera; also called HER2/neu; Fc part of the bought chimera not given

[9] = molecular target: T9, rHuman HGF R/c-MET/Fc Chimera, CF (R&D Systems Cat#358-MT/CF) (human, UniProt P08581 25-932); experiment: MSD ECL titration, Fab 0.6 nM, blank 226
T9 construct: Bought Fc chimera; also called HGF R/Fc; Fc part of the bought chimera not given

[10] = molecular target: T1, rHuman P-Cadherin/Fc Chimera, CF (R&D …); experiment: MSD ECL titration, Fab 148.9 nM, blank 218
[11] = molecular target: T3, rHuman EGF R/Fc Chimera, CF (R&D …); experiment: MSD ECL titration, Fab 148.9 nM, blank 218
[12] = molecular target: T4, Recombinant Human DLL4 (R&D Systems …); experiment: MSD ECL titration, Fab 148.9 nM, blank 218
[13] = molecular target: T5, rHuman Notch-1/Fc Chimera, CF (R&D …); experiment: MSD ECL titration, Fab 148.9 nM, blank 218
[14] = molecular target: T8, rHuman ErbB2/Fc Chimera, CF (R&D …); experiment: MSD ECL titration, Fab 148.9 nM, blank 218
[15] = molecular target: T9, rHuman HGF R/c-MET/Fc Chimera, CF (R&D …); experiment: MSD ECL titration, Fab 148.9 nM, blank 218
[16] = molecular target: T10, rHuman Notch-1/Fc Chimera, CF (R&D Systems Cat#3647-TK) (human, UniProt P46531 19-526); experiment: ECL (MSD Multi-Spot) binding assay, antigen spotted on plate; Fab 30 nM; blank spot 213
T10 construct: Bought Fc chimera; Fc part of the bought chimera not given

[17] = molecular target: T11, rHuman CD44/Fc Chimera, CF (R&D Systems Cat#3660-CD) (human, UniProt P16070 21-220); experiment: as above
T11 construct: Bought Fc chimera; Fc part of the bought chimera not given

[18] = molecular target: T12, Recombinant Human DLL4 (R&D Systems Cat#1506-D4/CF) (human, UniProt Q9NR61 27-524); experiment: as above
T12 construct: Bought recombinant protein; also called delta-like protein 4; rHuman DLL4

[19] = molecular target: T13, rHuman Erythropoietin R/Fc Chimera, CF (R&D Systems Cat#963-ER) (human, UniProt P19235 25-250); experiment: as above
T13 construct: Bought Fc chimera; also called EPO R/Fc; Epo R; Fc part of the bought chimera not given
T13 sequence: T7 sequence

[20] = molecular target: T14, rHuman P-Cadherin/Fc Chimera, CF (R&D Systems Cat#861-PC) (human, UniProt P22223 108-654); experiment: as above
T14 construct: Bought Fc chimera; also called CDH3; Fc part of the bought chimera not given
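Note: blank spot per well as comparator with Hit at signal to blank ratio of 4 or more.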

ECL signal [1]: 321 | ECL signal [2]: 313 | ECL signal [3]: 309 | ECL signal [4]: 508 | ECL signal [5]: 337 | ECL signal [6]: 238 | ECL signal [7]: 337 | ECL signal [8]: 215 | ECL signal [9]: 256 | ECL signal [10]: 687 | ECL signal [11]: 290 | ECL signal [12]: 16300 | ECL signal [13]: 375 | ECL signal [14]: 247 | ECL signal [15]: 205
B1: Fab VH1-46_IGHD6-6*01_IGHJ1*01 & L6_IGKJ1*01 (Fab, V domains shown)
VH: QVQLVQSGAEVKKPGASVKVSCKASGYTFTSYYMHWVRQAPGQGLEWMGIINPSGGSTSYAQKFQGRVTMTRDTSTSTVYMELSSLRSEDTAVYYCAREEYSSSSAEYFQHWGQGTLVTVSS
VL: not shown
notes: Expressed in E. coli as Fab: heavy chain with CH1 plus Flag and His tags from Plasmid A, kappa light chain constant region from Plasmid C; also called Fab No. 1

ECL signal [16]: 425 | ECL signal [17]: 484 | ECL signal [18]: 736 | ECL signal [19]: 325 | ECL signal [20]: 440
B2: Fab VH6-1_IGHD3-3*01_IGHJ4*01 & V4-3_IGLJ4*01 (Fab, V domains shown)
VH: QVQLQQSGPGLVKPSQTLSLTCAISGDSVSSNSAAWNWIRQSPSRGLEWLGRTYYRSKWYNDYAVSVKSRITINPDTSKNQFSLQLNSVTPEDTAVYYCAREYYDFWSGYYTDYFDYWGQGTLVTVSS
VL: QPVLTQPTSLSASPGASARLTCTLRSGINLGSYRIFWYQQKPESPPRYLLSYYSDSSKHQGSGVPSRFSGSKDASSNAGILVISGLQSEDEADYYCMIWHSSASFVFGGGTQLIIL
notes: Tested as a Fab made in E. coli; also called IGHV6-1*01
